Numbering of substitutions follows the chain as printed.
T1: E. coli wild-type SHMT (GST fusion protein) (E. coli, UniProt P0A825 1-417)
T1 construct: Overexpressed in E. coli as a GST fusion, purified and immobilized on the ELISA plate at 2 ug/ml; not shown: Glutathione-S-transferase (GST) fusion partner
T1 sequence: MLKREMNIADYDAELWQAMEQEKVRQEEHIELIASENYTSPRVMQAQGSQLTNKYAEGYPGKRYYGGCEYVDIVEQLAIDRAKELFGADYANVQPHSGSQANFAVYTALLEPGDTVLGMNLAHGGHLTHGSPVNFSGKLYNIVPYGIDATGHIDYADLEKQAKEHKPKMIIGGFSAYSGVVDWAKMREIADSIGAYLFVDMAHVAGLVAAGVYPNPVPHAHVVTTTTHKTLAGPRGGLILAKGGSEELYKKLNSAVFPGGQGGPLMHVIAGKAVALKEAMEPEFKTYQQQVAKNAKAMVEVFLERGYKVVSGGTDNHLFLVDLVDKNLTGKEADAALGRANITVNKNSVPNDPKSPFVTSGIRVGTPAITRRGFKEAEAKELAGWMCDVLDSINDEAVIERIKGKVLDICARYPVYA

T2: E. coli iPGM (E. coli, UniProt P37689 1-514, limits assumed)
T2 sequence (looked up): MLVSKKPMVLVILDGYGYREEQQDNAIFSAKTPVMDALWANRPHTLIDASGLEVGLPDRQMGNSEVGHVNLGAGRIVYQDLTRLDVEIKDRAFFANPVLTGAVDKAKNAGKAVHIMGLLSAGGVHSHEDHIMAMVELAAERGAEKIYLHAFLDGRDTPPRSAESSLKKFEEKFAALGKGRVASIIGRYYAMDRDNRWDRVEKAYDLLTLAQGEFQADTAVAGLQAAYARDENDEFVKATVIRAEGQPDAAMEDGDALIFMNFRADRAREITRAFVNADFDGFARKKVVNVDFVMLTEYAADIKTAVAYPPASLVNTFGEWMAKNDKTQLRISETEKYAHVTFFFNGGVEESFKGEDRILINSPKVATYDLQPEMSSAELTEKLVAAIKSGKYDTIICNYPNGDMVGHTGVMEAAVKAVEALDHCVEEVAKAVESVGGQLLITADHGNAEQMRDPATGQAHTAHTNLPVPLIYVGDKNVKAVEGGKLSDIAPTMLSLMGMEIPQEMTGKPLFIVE

T3: E. coli SHMT (25-45) (E. coli)
T3 construct: Expressed as a GST fusion; GST was cleaved off and removed before crystallization
T3 peptide: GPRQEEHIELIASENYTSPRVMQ

T4: C. difficile iPGM (486-509) (C. difficile)
T4 construct: Expressed as a GST fusion; GST was cleaved off and removed before crystallization
T4 peptide: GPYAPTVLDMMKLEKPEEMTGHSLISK

B1: RS_H007_L001 (antibody, V domains shown)
VH: EVQLQQSGSELVKSGASVKLSCTVSGFNFTNYYIHWVRQRTEQGLEWIGRIDPENNQTTYAPKFQGKATMTADTSSNTAYLQLTSLTSEDTAVYYCARSTVLDYWGHGTTLTVSS
VL: DVLMTQSPASLSVSLGDRATISCRASQSIVHTNGNTYLEWYLQKPGQSPKLLIYKVSNRFSGVPDRFSGSGSGTDFILKISRVEAEDLGVYYCFQGSHVPPTFGGGTKLEVK
notes: Mainly dimers
B2: W27 antibody (antibody, V domains shown)
VH: B1 VH with N31D, N56D, Q57E
VL: B1 VL with S7T, A9L, S12P, R18Q, T20S
notes: IgA; also called W27IgA antibody
B3: W27G2 antibody (antibody, V domains shown)
VH: B1 VH with N31D, N56D, Q57E
VL: DVLMTQTPLSLPVSLGDQASISCRASQSIVHTNGNTYLEWYLQKPGQSPKLLIYKVSNRFSGVPDRFSGSGSGTDFILKISRVEAEDLGVYYCFQGSHVPPTFGGGTKLEVKR
notes: Mouse IgA produced by a hybridoma; W27G2CHT is the crude hydroxyapatite-purified preparation; W27G2GF is the multimer fraction after gel filtration; also called hybridoma-derived W27G2 antibody; W27G2CHT
B4: RS_H000_L000GR Fab (Fab, V domains shown)
VH: B1 VH with N31D, N56D, Q57E
VL: B1 VL with S7T, A9L, S12P, R18Q, T20S
notes: Fab made by papain digestion of the W27 recombinant IgG expressed in CHO cells; also called IgG W27 Fab
B5: RS_H007_L005 (antibody, V domains shown)
VH: B1 VH
VL: B1 VL with A25S
notes: Mainly dimers
B6: RS_H007_L004 (antibody, V domains shown)
VH: B1 VH
VL: B1 VL with L11M, A25S
notes: Mainly dimers
B7: RS_H000_L005 (antibody, V domains shown)
VH: B1 VH with N31D, N56D, Q57E
VL: B1 VL with A25S
notes: Mainly dimers
B8: RS_H000_L001 (antibody, V domains shown)
VH: B1 VH with N31D, N56D, Q57E
VL: B1 VL
notes: Mainly dimers by non-reduced SDS-PAGE
B9: RS_H007_L002 (antibody, V domains shown)
VH: B1 VH
VL: B1 VL with A19V
notes: Mainly dimers

Legend:
[1] = target: T1, E. coli wild-type SHMT (GST fusion …); test: ELISA on immobilized GST fusion protein
E. coli iPGM = target: T2, E. coli iPGM; test: Western blot
E. coli SHMT (25-45) = target: T3, E. coli SHMT (25-45); test: X-ray crystal structure of the Fab-peptide complex
[2] = target: T4, C. difficile iPGM (486-509); test: X-ray crystal structure of the Fab-peptide complex

Row | Binder | binding result [1] | also measured
1 | B1 | binds | –
2 | B2 | – | binding result (E. coli iPGM): no binding
3 | B3 | binds | –
4 | B4 | – | binding result (E. coli SHMT (25-45)): binds; binding result [2]: binds
5 | B5 | binds | –
6 | B6 | binds | –
7 | B7 | binds | –
8 | B8 | binds | –
9 | B9 | binds | –
